Bounds are passed on as bounds.

Usually Kd stands for the free concentration of one partner at which half of the binding sites on the other are occupied at equilibrium, for simple one-to-one binding. In general, koff refers to the rate constant with which the complex falls apart. Usually kon stands for a measure of how fast the partners come together.

In assay [1] the target is Soluble human recombinant p97 (melanotransferrin) (human) (UniProt P08582). The experiment in a line: SPR (BIAcore), p97 immobilised on CM5 chip, mAb injected.
The target is the same in assay [2]. Put plainly: SPR (BIAcore), p97 immobilised on CM5 chip, mAb injected at 0.05 µg/µl. A general note: SPR reads the build-up and loss of mass on a sensor chip optically.
The target is the same in assay [3]. The experiment in a line: cell-based or functional assay.
The target of assay [4] is endogenous membrane-bound p97 of HMEC-1 and SK-MEL28 cells (human) (UniProt P08582). Put plainly: cell-based or functional assay.
endogenous membrane-bound p97 of HMEC-1 and SK-MEL28 cells (human), sequence (P08582 20-709): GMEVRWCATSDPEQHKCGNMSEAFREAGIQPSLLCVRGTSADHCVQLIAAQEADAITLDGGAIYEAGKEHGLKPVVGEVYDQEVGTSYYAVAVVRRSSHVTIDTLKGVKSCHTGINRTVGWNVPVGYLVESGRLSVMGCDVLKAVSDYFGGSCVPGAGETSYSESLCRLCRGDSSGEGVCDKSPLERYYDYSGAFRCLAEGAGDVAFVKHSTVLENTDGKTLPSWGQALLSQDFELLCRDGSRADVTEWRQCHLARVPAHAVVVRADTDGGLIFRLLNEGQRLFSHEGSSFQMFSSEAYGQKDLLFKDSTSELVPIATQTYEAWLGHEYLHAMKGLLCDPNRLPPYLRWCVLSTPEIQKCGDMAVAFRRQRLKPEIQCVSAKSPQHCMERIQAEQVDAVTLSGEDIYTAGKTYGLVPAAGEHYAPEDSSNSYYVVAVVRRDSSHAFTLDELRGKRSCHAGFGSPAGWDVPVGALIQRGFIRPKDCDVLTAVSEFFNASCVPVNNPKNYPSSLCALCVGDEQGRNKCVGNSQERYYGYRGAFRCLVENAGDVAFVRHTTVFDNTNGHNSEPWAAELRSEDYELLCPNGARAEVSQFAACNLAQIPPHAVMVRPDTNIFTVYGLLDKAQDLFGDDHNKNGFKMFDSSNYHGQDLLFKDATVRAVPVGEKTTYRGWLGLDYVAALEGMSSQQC

Soluble human recombinant p97 (melanotransferrin) (human), sequence (P08582 20-711 T431K): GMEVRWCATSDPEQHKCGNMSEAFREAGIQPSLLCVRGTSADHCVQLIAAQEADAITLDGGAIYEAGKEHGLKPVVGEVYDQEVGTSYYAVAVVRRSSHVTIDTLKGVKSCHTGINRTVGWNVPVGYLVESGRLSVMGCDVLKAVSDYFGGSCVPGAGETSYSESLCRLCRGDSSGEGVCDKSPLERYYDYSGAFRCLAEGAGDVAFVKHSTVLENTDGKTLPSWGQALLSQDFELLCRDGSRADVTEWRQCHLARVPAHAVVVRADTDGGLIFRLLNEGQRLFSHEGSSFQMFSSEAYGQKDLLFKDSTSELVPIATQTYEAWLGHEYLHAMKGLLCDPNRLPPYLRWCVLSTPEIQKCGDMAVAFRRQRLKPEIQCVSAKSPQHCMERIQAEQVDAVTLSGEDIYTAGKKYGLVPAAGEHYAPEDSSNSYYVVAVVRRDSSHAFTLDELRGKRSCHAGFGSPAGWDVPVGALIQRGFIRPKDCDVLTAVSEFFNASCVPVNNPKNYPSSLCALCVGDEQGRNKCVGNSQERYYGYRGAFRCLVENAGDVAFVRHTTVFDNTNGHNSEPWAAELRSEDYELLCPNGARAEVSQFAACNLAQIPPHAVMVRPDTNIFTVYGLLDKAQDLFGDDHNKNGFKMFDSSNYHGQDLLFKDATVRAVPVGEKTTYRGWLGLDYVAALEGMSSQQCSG

With “monoclonal antibody L235 directed against p97”, in assay [1], the Ka worked out at 9e+08 M⁻¹, the dissociation constant (Kd) is 1.2 nM, the koff is 5.3e-05 s⁻¹ and the kon was found to be 44000 M⁻¹ s⁻¹. Also, in assay [2], the ΔRU worked out at 1060 RU. Also, in assay [3], the inhibition of the effect of soluble p97 on plasminogen activation by tPA was 80% and the inhibition of the pro-uPA activation induced by p97 (plasminolytic activity) is 50%. In assay [4], the inhibition of HMEC-1 cell migration by 50 nM mAb L235 (Boyden chamber) amounted to 54%, the inhibition of SK-MEL28 cell migration by 50 nM mAb L235 (Boyden chamber) worked out at 48% and the inhibition of plasminolytic activity of HMEC-1 cells by 250 nM mAb L235 was more than 50%.

For the origin of these results see patent US20070053894A1.
